The source of these data is paper PMC9405553, “G-Quadruplex Formed by the Promoter Region of the hTERT Gene: Structure-Driven Effects on DNA Mismatch Repair Functions”.

For data set [1], the target named is T1, ecMutS (Escherichia coli, UniProt P23909 1-853).
T1 sequence: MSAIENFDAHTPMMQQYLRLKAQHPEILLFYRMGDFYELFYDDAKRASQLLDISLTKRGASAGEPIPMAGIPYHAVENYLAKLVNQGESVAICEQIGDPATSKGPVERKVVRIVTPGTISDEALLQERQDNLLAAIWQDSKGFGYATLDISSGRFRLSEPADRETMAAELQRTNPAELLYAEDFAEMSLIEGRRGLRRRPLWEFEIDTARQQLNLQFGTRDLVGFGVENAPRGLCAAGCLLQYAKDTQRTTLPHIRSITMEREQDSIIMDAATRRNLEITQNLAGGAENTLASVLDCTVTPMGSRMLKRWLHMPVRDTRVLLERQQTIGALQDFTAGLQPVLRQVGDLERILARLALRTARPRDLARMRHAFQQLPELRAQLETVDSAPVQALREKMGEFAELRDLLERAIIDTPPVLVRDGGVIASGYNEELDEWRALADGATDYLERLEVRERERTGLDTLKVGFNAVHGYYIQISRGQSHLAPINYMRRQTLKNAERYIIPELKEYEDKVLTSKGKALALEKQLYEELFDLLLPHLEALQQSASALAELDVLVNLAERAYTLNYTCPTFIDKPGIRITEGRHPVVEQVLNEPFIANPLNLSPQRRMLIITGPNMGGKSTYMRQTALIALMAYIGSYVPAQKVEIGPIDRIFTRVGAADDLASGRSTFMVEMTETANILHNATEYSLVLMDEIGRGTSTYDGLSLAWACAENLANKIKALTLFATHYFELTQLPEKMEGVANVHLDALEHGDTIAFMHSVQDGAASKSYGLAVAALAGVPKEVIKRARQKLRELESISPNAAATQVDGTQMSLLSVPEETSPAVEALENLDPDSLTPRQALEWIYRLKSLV
Description: EMSA; ecMutS: 20 mM HEPES-KOH pH 7.9, 5 mM MgCl2, 120 mM KCl, 0.5 mg/mL BSA, 1 mM ADP, 37 C 15 min, 5 nM DNA; ecMutL/ngMutL: 20 mM HEPES pH 8.0, 100 mM KCl, 0.5 mg/mL BSA, 1 mM DTT, on ice 10 min, 20 nM DNA; gels in TAE at 4 C. The following applies: protein: recombinant; tags: N-terminal His6; chain copies: 2; text says bottom strand; blunt, one T:G mismatch at strand 1 position 22.

The next data set has as its target T2, ngMutL (Neisseria gonorrhoeae (FA 1090 in Fig. …, UniProt Q5F8M6 1-658)).
T2 sequence: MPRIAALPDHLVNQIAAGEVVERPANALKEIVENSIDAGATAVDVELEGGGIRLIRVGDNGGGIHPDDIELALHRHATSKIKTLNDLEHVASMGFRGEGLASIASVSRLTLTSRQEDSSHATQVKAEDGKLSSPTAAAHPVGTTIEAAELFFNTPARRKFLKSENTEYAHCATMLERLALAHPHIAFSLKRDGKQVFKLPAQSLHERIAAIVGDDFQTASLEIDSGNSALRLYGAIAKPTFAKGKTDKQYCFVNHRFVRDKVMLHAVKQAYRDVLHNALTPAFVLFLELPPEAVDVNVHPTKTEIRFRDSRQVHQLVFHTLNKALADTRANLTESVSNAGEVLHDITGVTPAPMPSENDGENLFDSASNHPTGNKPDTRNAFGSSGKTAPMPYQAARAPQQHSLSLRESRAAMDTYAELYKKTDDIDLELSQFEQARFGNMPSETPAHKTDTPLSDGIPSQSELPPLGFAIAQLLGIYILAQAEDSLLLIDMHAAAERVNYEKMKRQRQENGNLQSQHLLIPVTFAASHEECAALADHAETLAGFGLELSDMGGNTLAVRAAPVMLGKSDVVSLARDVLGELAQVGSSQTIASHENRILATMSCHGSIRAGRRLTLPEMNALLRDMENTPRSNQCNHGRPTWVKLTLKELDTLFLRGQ
The data set is described as above. Particulars: protein: recombinant, tags: N-terminal His6, chain copies: 2.

The target of the next data set is ecMutL (Escherichia coli (K12 in Fig. S2 legend), UniProt P23367 1-615). Described as above. Particulars: protein: recombinant, tags: N-terminal His6, chain copies: 2.
ecMutL, sequence (P23367 whole entry): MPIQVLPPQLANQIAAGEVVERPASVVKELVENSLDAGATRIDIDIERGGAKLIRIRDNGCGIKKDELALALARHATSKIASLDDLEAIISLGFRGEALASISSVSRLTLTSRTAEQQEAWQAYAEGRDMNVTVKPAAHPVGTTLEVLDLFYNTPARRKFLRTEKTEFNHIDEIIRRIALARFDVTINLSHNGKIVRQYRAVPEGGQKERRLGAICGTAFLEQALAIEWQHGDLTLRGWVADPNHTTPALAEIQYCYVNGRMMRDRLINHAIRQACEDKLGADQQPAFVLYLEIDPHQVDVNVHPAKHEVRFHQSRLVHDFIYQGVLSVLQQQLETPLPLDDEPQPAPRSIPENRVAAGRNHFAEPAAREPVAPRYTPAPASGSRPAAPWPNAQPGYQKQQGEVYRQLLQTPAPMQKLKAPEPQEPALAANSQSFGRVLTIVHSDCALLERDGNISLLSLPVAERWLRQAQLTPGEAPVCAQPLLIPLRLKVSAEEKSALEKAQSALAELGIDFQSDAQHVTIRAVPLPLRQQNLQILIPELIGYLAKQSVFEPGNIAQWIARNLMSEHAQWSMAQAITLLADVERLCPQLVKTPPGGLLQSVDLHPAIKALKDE
The target of data set [2] is T1, ecMutS. In words: EMSA; 1 mM ADP, 5 mM MgCl2; ecMutS: 20 mM HEPES-KOH pH 7.9, 5 mM MgCl2, 120 mM KCl, 0.5 mg/mL BSA, 1 mM ADP, 37 C 15 min, 5 nM DNA; ecMutL/ngMutL: 20 mM HEPES pH 8.0, 100 mM KCl, 0.5 mg/mL BSA, 1 mM DTT, on ice 10 min, 20 nM DNA; gels in TAE at 4 C. The following applies: protein: recombinant, tags: N-terminal His6, chain copies: 2.
In data set [3] the target is T1, ecMutS. In words: competition; vs ds76-G/T-3', 65 nM ecMutS dimer; ecMutS: 20 mM HEPES-KOH pH 7.9, 5 mM MgCl2, 120 mM KCl, 0.5 mg/mL BSA, 1 mM ADP, 37 C 15 min, 5 nM DNA; ecMutL/ngMutL: 20 mM HEPES pH 8.0, 100 mM KCl, 0.5 mg/mL BSA, 1 mM DTT, on ice 10 min, 20 nM DNA; gels in TAE at 4 C. The following applies: protein: recombinant; tags: N-terminal His6; chain copies: 2; label: none; three stacked parallel intramolecular G4s.

Where [4] appears, read: label: 5'-TAMRA, three stacked parallel intramolecular G4s.
[5] abbreviates: label: 3'-TAMRA, three stacked parallel intramolecular G4s.
Where [6] appears, read: text says 5' for ecMutS assays, single parallel intramolecular G4.

B1: ds76-G/T-3' (dsDNA)
DNA 1: ATAGGACGCTGACACTGGTGCTTGGCAGCTGAGCCATATGCTCGAGTAACGCTCATAGGATCCAAGCGCGAAAGGA
DNA 2: TCCTTTCGCGCTTGGATCCTATGAGCGTTACTCGAGCATATGGCTCAGCTGCCAGGCACCAGTGTCAGCGTCCTAT
With B1, the Kd in the data set with ecMutS [1] worked out at 35 ± 3 nM.

B2: ds96/96* (dsDNA)
DNA 1: ACCTGGATGCCTATAGGGCGAATTGGGTACCGCTGAATTGCACTGGACTTGATCCTCGATGATCCTAAGCTAAGCTTCAGCTCCAGCCTAAGCCTG
DNA 2: CAGGCTTAGGCTGGAGCTGAAGCTTAGCTTAGGATCATCGAGGATCGAGTCCGGTGCAATTCAGCGGTACCCAATTCGCCCTATAGGCATCCAGGT
Take B2: the dissociation constant (Kd) with ngMutL (label: 3'-TAMRA on strand 1, blunt) turned out to be 125 ± 5 nM.

B3: WT-5' (structured_DNA)
DNA: GCCGCGGAAAGGAAGGGGAGGGGCTGGGAGGGCCCGGAGGGGGCTGGGCCGGGGACCCGGGAGGGGTCGGGACGGGGCGGGGTCCGCGCGGAGGAG
As to B3, the figures for the Kd with ecMutL (setting [4]) and with ecMutS [2] (setting [4]) were 115 ± 30 nM and 15 ± 6 nM, respectively.

B4: G228A-3' (structured_DNA)
DNA: GCCGCGGAAAGGAAGGGGAGGGGCTGGGAGGGCCCGGAAGGGGCTGGGCCGGGGACCCGGGAGGGGTCGGGACGGGGCGGGGTCCGCGCGGAGGAG
In the case of B4, the Kd in the data set with ngMutL (setting [5]) worked out at 44 ± 3 nM.

B5: G228A-5' (structured_DNA)
DNA: GCCGCGGAAAGGAAGGGGAGGGGCTGGGAGGGCCCGGAAGGGGCTGGGCCGGGGACCCGGGAGGGGTCGGGACGGGGCGGGGTCCGCGCGGAGGAG
With B5, the Kd worked out at 170 ± 40 nM in the data set with ecMutL (setting [4]) and 24 ± 6 nM with ecMutS [2] (setting [4]).

B6: G250A (unlabeled) (structured_DNA)
DNA: GCCGCGGAAAGGAAGGGGAGGGGCTGGGAGGGCCCGGAGGGGGCTGGGCCGGGGACCCGGAAGGGGTCGGGACGGGGCGGGGTCCGCGCGGAGGAG
Turning to B6, in the data set with ecMutS [3], the IC50 is 40 ± 15 nM and the Ki came to 35 ± 15 nM.

B7: WT-3' (structured_DNA)
DNA: GCCGCGGAAAGGAAGGGGAGGGGCTGGGAGGGCCCGGAGGGGGCTGGGCCGGGGACCCGGGAGGGGTCGGGACGGGGCGGGGTCCGCGCGGAGGAG
Take B7: the Kd with ngMutL (setting [5]) was determined as 49 ± 3 nM.

B8: G228A (unlabeled) (structured_DNA)
DNA: GCCGCGGAAAGGAAGGGGAGGGGCTGGGAGGGCCCGGAAGGGGCTGGGCCGGGGACCCGGGAGGGGTCGGGACGGGGCGGGGTCCGCGCGGAGGAG
For B8, in the data set with ecMutS [3], the IC50 came out at 35 ± 4 nM and the Ki stood at 31 ± 6 nM.

B9: G250A-3' (structured_DNA)
DNA: GCCGCGGAAAGGAAGGGGAGGGGCTGGGAGGGCCCGGAGGGGGCTGGGCCGGGGACCCGGAAGGGGTCGGGACGGGGCGGGGTCCGCGCGGAGGAG
Consider B9, for which the Kd with ngMutL (setting [5]) was determined as 42 ± 2 nM.

B10: G242,243A-5' (structured_DNA)
DNA: GCCGCGGAAAGGAAGGGGAGGGGCTGGGAGGGCCCGGAGGGGGCTGGGCCGGAAACCCGGGAGGGGTCGGGACGGGGCGGGGTCCGCGCGGAGGAG
As to B10, the results for the Kd with ecMutL (setting [4]) and with ecMutS [2] (setting [4]) were 110 ± 20 nM and 27 ± 4 nM, respectively.

B11: G242,243A-3' (structured_DNA)
DNA: GCCGCGGAAAGGAAGGGGAGGGGCTGGGAGGGCCCGGAGGGGGCTGGGCCGGAAACCCGGGAGGGGTCGGGACGGGGCGGGGTCCGCGCGGAGGAG
B11: the Kd with ngMutL (setting [5]) was found to be 51 ± 2 nM.

B12: WT (structured_DNA)
DNA: GCCGCGGAAAGGAAGGGGAGGGGCTGGGAGGGCCCGGAGGGGGCTGGGCCGGGGACCCGGGAGGGGTCGGGACGGGGCGGGGTCCGCGCGGAGGAG
Regarding B12, in the data set with ecMutS [3], the IC50 was 32 ± 3 nM and the Ki was 28 ± 5 nM.

B13: G250A-5' (structured_DNA)
DNA: GCCGCGGAAAGGAAGGGGAGGGGCTGGGAGGGCCCGGAGGGGGCTGGGCCGGGGACCCGGAAGGGGTCGGGACGGGGCGGGGTCCGCGCGGAGGAG
B13: the Kd worked out at 130 ± 30 nM with ecMutL (setting [4]) and 30 ± 7 nM with ecMutS [2] (setting [4]).

B14: G242,243A (unlabeled) (structured_DNA)
DNA: GCCGCGGAAAGGAAGGGGAGGGGCTGGGAGGGCCCGGAGGGGGCTGGGCCGGAAACCCGGGAGGGGTCGGGACGGGGCGGGGTCCGCGCGGAGGAG
B14: in the data set with ecMutS [3], the IC50 is 28 ± 7 nM and the Ki stood at 25 ± 8 nM.

B15: 95G4 (structured_DNA)
DNA: ATAGGACGCTGACACTGGTGCTTGGCAGCTGAGCCATATTTGGGTGGGTGGGTGGGTTGCTCGAGTAACGCTCATAGGATCCAAGCGCGAAAGGA
Consider B15, for which the dissociation constant (Kd) in the data set with ngMutL (setting [6]) was determined as 41 ± 1 nM; with ecMutL (setting [6]) it was 120 ± 20 nM; with ecMutS [2] (setting [6]), 38 ± 5 nM.
